B1: TR01H040-E22Hh/none-Hi-Kn010G3/TR01L019-k0 (antibody, human IgG1, kappa, L234A L235A, N297A)
heavy: QVQLVESGGGLVQPGRSLRLSCAASGFTFSNAWMHWVRQAPGKGLEWVAQIKDKSQNYATYYAESVKGRFTISRADSKNSIYLQMNSLKTEDTAVYYCRYVHYSASYGVDAWGQGTTVTVSSASTKGPSVFPLAPSSKSTSGGTAALGCLVKDYFPEPVTVSWNSGALTSGVHTFPAVLQSSGLYSLSSVVTVPSSSLGTQTYICNVNHKPSNTKVDKKVEPKSCDKTHTCPPCPAPEAAGGPSVFLFPPKPKDTLMISRTPEVTCVVVDVSHEDPEVKFNWYVDGVEVHNAKTKPREEQYASTYRVVSVLTVLHQDWLNGKEYKCKVSNKALPAPIEKTISKAKGQPREPQVYTLPPSRCELTKNQVSLSCAVKGFYPSDIAVEWESNGQPENNYKTTPPVLDSDGSFFLVSKLTVDKSRWQQGNVFSCSVMHEALHNHYTQKSLSLSPDYKDDDDK
chain: EPKSSDKTHTCPPCPAPELLGGPSVFLFPPKPKDTLMISRTPEVTCVVVDVSHEDPEVKFNWYVDGVEVHNAKTKPREEQYNSTYRVVSVLTVLHQDWLNGKEYKCKVSNKALPAPIEKTISKAKGQPREPQVCTLPPSRDELTKNQVSLWCLVKGFYPSDIAVEWESNGQPENNYKTTPPVLDSDGSFFLYSKLTVDKSRWQQGNVFSCSVMHEALHNRYTQKSLSLSP
light: DIVMTQSPLSLPVTPGEPASISCQASESPVHSNRNTYLHWYLQKPGQSPQLLIYKVSNRFSGVPDRFSGSGSGTDFTLKISRVEAEDVGVYYCYQGTQVPYTFGQGTKLEIKRTVAAPSVFIFPPSDEQLKSGTASVVCLLNNFYPREAKVQWKVDNALQSGNSQESVTEQDSKDSTYSLSSTLTLSKADYEKHKVYACEVTHQGLSSPVTKSFNRGEC
notes: single-arm
B2: TR01H041-E22Hh/none-Hi-Kn010G3/L0000-k0 (antibody, human IgG1, kappa, L234A L235A, N297A)
heavy: QVQLVESGGGLVQPGRSLRLSCAASGFTFSNAWMHWVRQAPGKGLEWVAQIKDKSQNYATYYAESVKGRFTISRADSKNSIYLQMNSLKTEDTAVYYCRYVHYSASYGVDYWGQGTTVTVSSASTKGPSVFPLAPSSKSTSGGTAALGCLVKDYFPEPVTVSWNSGALTSGVHTFPAVLQSSGLYSLSSVVTVPSSSLGTQTYICNVNHKPSNTKVDKKVEPKSCDKTHTCPPCPAPEAAGGPSVFLFPPKPKDTLMISRTPEVTCVVVDVSHEDPEVKFNWYVDGVEVHNAKTKPREEQYASTYRVVSVLTVLHQDWLNGKEYKCKVSNKALPAPIEKTISKAKGQPREPQVYTLPPSRCELTKNQVSLSCAVKGFYPSDIAVEWESNGQPENNYKTTPPVLDSDGSFFLVSKLTVDKSRWQQGNVFSCSVMHEALHNHYTQKSLSLSPDYKDDDDK
chain: EPKSSDKTHTCPPCPAPELLGGPSVFLFPPKPKDTLMISRTPEVTCVVVDVSHEDPEVKFNWYVDGVEVHNAKTKPREEQYNSTYRVVSVLTVLHQDWLNGKEYKCKVSNKALPAPIEKTISKAKGQPREPQVCTLPPSRDELTKNQVSLWCLVKGFYPSDIAVEWESNGQPENNYKTTPPVLDSDGSFFLYSKLTVDKSRWQQGNVFSCSVMHEALHNRYTQKSLSLSP
light: DIVMTQSPLSLPVTPGEPASISCRSSQSLVHSNRNTYLHWYQQKPGQAPRLLIYKVSNRFSGVPDRFSGSGSGTDFTLKISRVEAEDVGVYYCGQGTQVPYTFGQGTKLEIKRTVAAPSVFIFPPSDEQLKSGTASVVCLLNNFYPREAKVQWKVDNALQSGNSQESVTEQDSKDSTYSLSSTLTLSKADYEKHKVYACEVTHQGLSSPVTKSFNRGEC
notes: single-arm
B3: TR01H042-E22Hh/none-Hi-Kn010G3/L0000-k0 (antibody, human IgG1, kappa, L234A L235A, N297A)
heavy: QVQLVESGGGVVQPGGSLRLSCAASGFTFSNAWMHWVRQAPGKGLEWVAQIKDKSQNYATYYAESVKGRFTISRADSKNSIYLQMNSLKTEDTAVYYCRYVHYSASYGVDAWGQGTTVTVSSASTKGPSVFPLAPSSKSTSGGTAALGCLVKDYFPEPVTVSWNSGALTSGVHTFPAVLQSSGLYSLSSVVTVPSSSLGTQTYICNVNHKPSNTKVDKKVEPKSCDKTHTCPPCPAPEAAGGPSVFLFPPKPKDTLMISRTPEVTCVVVDVSHEDPEVKFNWYVDGVEVHNAKTKPREEQYASTYRVVSVLTVLHQDWLNGKEYKCKVSNKALPAPIEKTISKAKGQPREPQVYTLPPSRCELTKNQVSLSCAVKGFYPSDIAVEWESNGQPENNYKTTPPVLDSDGSFFLVSKLTVDKSRWQQGNVFSCSVMHEALHNHYTQKSLSLSPDYKDDDDK
chain: EPKSSDKTHTCPPCPAPELLGGPSVFLFPPKPKDTLMISRTPEVTCVVVDVSHEDPEVKFNWYVDGVEVHNAKTKPREEQYNSTYRVVSVLTVLHQDWLNGKEYKCKVSNKALPAPIEKTISKAKGQPREPQVCTLPPSRDELTKNQVSLWCLVKGFYPSDIAVEWESNGQPENNYKTTPPVLDSDGSFFLYSKLTVDKSRWQQGNVFSCSVMHEALHNRYTQKSLSLSP
light: DIVMTQSPLSLPVTPGEPASISCRSSQSLVHSNRNTYLHWYQQKPGQAPRLLIYKVSNRFSGVPDRFSGSGSGTDFTLKISRVEAEDVGVYYCGQGTQVPYTFGQGTKLEIKRTVAAPSVFIFPPSDEQLKSGTASVVCLLNNFYPREAKVQWKVDNALQSGNSQESVTEQDSKDSTYSLSSTLTLSKADYEKHKVYACEVTHQGLSSPVTKSFNRGEC
notes: single-arm
B4: TR01H043-E22Hh/none-Hi-Kn010G3/L0000-k0 (antibody, human IgG1, kappa, L234A L235A, N297A)
heavy: QVQLVESGGGLVQPGRSLRLSCSASGFTFSNAWMHWVRQAPGKGLEWVAQIKDKSNNYATYYAESVKGRFTISRADSKNSIYLQMNSLKTEDTAVYYCRYVHYSASYGVDIWGQGTTVTVSSASTKGPSVFPLAPSSKSTSGGTAALGCLVKDYFPEPVTVSWNSGALTSGVHTFPAVLQSSGLYSLSSVVTVPSSSLGTQTYICNVNHKPSNTKVDKKVEPKSCDKTHTCPPCPAPEAAGGPSVFLFPPKPKDTLMISRTPEVTCVVVDVSHEDPEVKFNWYVDGVEVHNAKTKPREEQYASTYRVVSVLTVLHQDWLNGKEYKCKVSNKALPAPIEKTISKAKGQPREPQVYTLPPSRCELTKNQVSLSCAVKGFYPSDIAVEWESNGQPENNYKTTPPVLDSDGSFFLVSKLTVDKSRWQQGNVFSCSVMHEALHNHYTQKSLSLSPDYKDDDDK
chain: EPKSSDKTHTCPPCPAPELLGGPSVFLFPPKPKDTLMISRTPEVTCVVVDVSHEDPEVKFNWYVDGVEVHNAKTKPREEQYNSTYRVVSVLTVLHQDWLNGKEYKCKVSNKALPAPIEKTISKAKGQPREPQVCTLPPSRDELTKNQVSLWCLVKGFYPSDIAVEWESNGQPENNYKTTPPVLDSDGSFFLYSKLTVDKSRWQQGNVFSCSVMHEALHNRYTQKSLSLSP
light: DIVMTQSPLSLPVTPGEPASISCRSSQSLVHSNRNTYLHWYQQKPGQAPRLLIYKVSNRFSGVPDRFSGSGSGTDFTLKISRVEAEDVGVYYCGQGTQVPYTFGQGTKLEIKRTVAAPSVFIFPPSDEQLKSGTASVVCLLNNFYPREAKVQWKVDNALQSGNSQESVTEQDSKDSTYSLSSTLTLSKADYEKHKVYACEVTHQGLSSPVTKSFNRGEC
notes: single-arm
B5: TR01H044-E22Hh/none-Hi-Kn010G3/L0000-k0 (antibody, human IgG1, kappa, L234A L235A, N297A)
heavy: QVQLVESGGGLVQPGRSLRLSCSASGFTFSNAWMHWVRQAPGKGLEWVAQIKDKSQNYATYYAESVKGRFTISRADSKNSIYLQMNSLKTEDTAVYYCRYVHYSASYGVDIWGQGTTVTVSSASTKGPSVFPLAPSSKSTSGGTAALGCLVKDYFPEPVTVSWNSGALTSGVHTFPAVLQSSGLYSLSSVVTVPSSSLGTQTYICNVNHKPSNTKVDKKVEPKSCDKTHTCPPCPAPEAAGGPSVFLFPPKPKDTLMISRTPEVTCVVVDVSHEDPEVKFNWYVDGVEVHNAKTKPREEQYASTYRVVSVLTVLHQDWLNGKEYKCKVSNKALPAPIEKTISKAKGQPREPQVYTLPPSRCELTKNQVSLSCAVKGFYPSDIAVEWESNGQPENNYKTTPPVLDSDGSFFLVSKLTVDKSRWQQGNVFSCSVMHEALHNHYTQKSLSLSPDYKDDDDK
chain: EPKSSDKTHTCPPCPAPELLGGPSVFLFPPKPKDTLMISRTPEVTCVVVDVSHEDPEVKFNWYVDGVEVHNAKTKPREEQYNSTYRVVSVLTVLHQDWLNGKEYKCKVSNKALPAPIEKTISKAKGQPREPQVCTLPPSRDELTKNQVSLWCLVKGFYPSDIAVEWESNGQPENNYKTTPPVLDSDGSFFLYSKLTVDKSRWQQGNVFSCSVMHEALHNRYTQKSLSLSP
light: DIVMTQSPLSLPVTPGEPASISCRSSQSLVHSNRNTYLHWYQQKPGQAPRLLIYKVSNRFSGVPDRFSGSGSGTDFTLKISRVEAEDVGVYYCGQGTQVPYTFGQGTKLEIKRTVAAPSVFIFPPSDEQLKSGTASVVCLLNNFYPREAKVQWKVDNALQSGNSQESVTEQDSKDSTYSLSSTLTLSKADYEKHKVYACEVTHQGLSSPVTKSFNRGEC
notes: single-arm

What follows are binders tested against T1, soluble human CD3ε chain (human, UniProt P07766 23-126, limits assumed) (assay: SPR (Biacore)).
T1 construct: the text says soluble human CD3ε chain; also called human CD3 epsilon chain
T1 sequence (P07766 23-126 limits assumed): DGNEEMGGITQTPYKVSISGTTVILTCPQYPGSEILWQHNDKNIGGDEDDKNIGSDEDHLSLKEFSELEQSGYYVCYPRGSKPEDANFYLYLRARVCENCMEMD

Compared with B1, B2 is 9.9-fold higher in Kd: 3.2 nM for the first, 31.6 nM for the second. The first binds more tightly here.

Going from B3 to B4, the Kd falls from 44.8 nM to 15.2 nM (2.9-fold).

With B5 the Kd was 35.2 nM.
